Measured values reported in patent US20160348147.

Test system: PSA peptide M(GVGVP)60GDGQSSIYSQTEEQQDDEEG

## Prostate Specific Antigen (PSA), active
  optical density of 100 µM PSA peptide before and after 2 h with 20 ng/mL active PSA at 37 C: a distinct difference in the presence of active PSA, with an increase in optical density of the solution above the transition temperature after incubation with enzyme
